B1: TPR t1 (parent)
chain: GACCAAUCUGCCCUCAGAGCUCGAGAACAUCUUCGGAUGCAGAGGAGGCAGGCUUCGGUGGCGCGAUAGCGCCAACGUCCUCAACCUCCAAUGCAUCCCACCACAUGAUGAUGCCUGAAGAGCCUUGGUUUUUUG

Variants of: B1
Experiment: polymerase ribozyme fitness, log enrichment relative to wild type (log ratio); higher = more active; in vitro selection for triplet polymerase activity
Method in brief: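 Genotype fitness is the logarithm of its enrichment divided by wild-type enrichment, using inverse-variance-weighted averages of replicates. That logarithm is base 2. Enrichment was measured by Illumina sequencing of input and output libraries from one triplicate in vitro selection round, with frozen incubation at −7 °C, on PCR-built, transcribed mutant libraries of each subunit of a heterodimeric triplet polymerase ribozyme, retaining genotypes with ≥10 input reads and ≥1 read per output.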

Variant | polymerase ribozyme fitness (log ratio)
GACCAAUCUGCCCUCAGAGCUCGAGAACAUCUUCGGAUGCAGAGGAGGCAGGCUUCGGUGGAGCGAUAGCGCCAACGUCCUCAACCUCCAAUGCAUCCCACCACAUGAUGAUGCCUGAAGAGCCUUGGUUUUUUC [C62A G135C] | -0.579
GACCAAUCUGCCCUCAGAGCUCGAGAACAUCUUCGGAUGCAGAGGAGGCAGGCUUCGGUGGAGCGAUAGCGCCAACGUCCUCAACCUCCAAUGCAUCCCACCACAUGAUGAUGCCUGAAGAGCCUUGGUUUUUUU [C62A G135U] | -1.52
GACCAAUCUGCCCUCAGAGCUCGAGAACAUCUUCGGAUGCAGAGGAGGCAGGCUUCGGUGGAGCGAUAGCGCCAACGCCCUCAACCUCCAAUGCAUCCCACCACAUGAUGAUGCCUGAAGCGCCUUGGUUUUUUG [C62A U78C A121C] | 0.55
GACCAAUCUGCCCUCAGAGCUCGAGAACAUCUUCGGAUGCAGAGGAGGCAGGCUUCGGUGGAGCGAUAGCGCCAACGGCCUCAACCUCCAAUGCAUCCCACCACAUGAUGAUGCCUGAAGAGCCUUGGUUUUUUG [C62A U78G] | -2.46
GACCAAUCUGCCCUCAGAGCUCGAGAACAUCUUCGGAUGCAGAGGAGGCAGGCUUCGGUGGAGCGAUAGCGCCAACGUCCUCAACCACCAAUGCAUCCCCCCACAUGAUGAUGCAUGAAGAGCCUUGGUUUUUUG [C62A U87A A100C C115A] | -2.71
GACCAAUCUGCCCUCAGAGCUCGAGAACAUCUUCGGAUGCAGAGGAGGCAGGCUUCGGUGGAGCGAUAGCGCCAACGUCCUCAACCUCCAAUGCAACCCACCACAUGAUGAUGCCUGAAGAGCCUUGGUUUUUUG [C62A U96A] | -1.77
GACCAAUCUGCCCUCAGAGCUCGAGAACAUCUUCGGAUGCAGAGGAGGCAGGCUUCGGUGGAGCGAUAGCGCCAACGUCCUCAACCUCCAAUGCAGCCCACCACAUGAUGAUCCCUGAAGAGGCUUGGUUUUAUG [C62A U96G G113C C123G U133A] | -3.2
GACCAAUCUGCCCUCAGAGCUCGAGAACAUCUUCGGAUGCAGAGGAGGCAGGCUUCGGUGGAGCGAUAGCGCCAACGUCCUCAACCUCCAAUGCAUCCCACCACAUGAUGAAGCCUGAAGAGGCUUGGUUUUUUG [C62A U112A C123G] | -1.31
GACCAAUCUGCCCUCAGAGCUCGAGAACAUCUUCGGAUGCAGAGGAGGCAGGCUUCGGUGGAGCGAUAGCGCCAACGUCCUCAACCUCCAAUGCAUCCCACCACAUGAUGAUGCCUGAAGAGCCUGGGUUUUUUG [C62A U126G] | -2.4
GACCAAUCUGCCCUCAGAGCUCGAGAACAUCUUCGGAUGCAGAGGAGGCAGGCUUCGGUGGAGCGAUAGCGCCAACGUCCUCAACCUCCAAUGCAUCCCACCACAUGAUGAUGCCUGAAGAGCCUUGGAUUUUUG [C62A U129A] | -2.21
GACCAAUCUGCCCUCAGAGCUCGAGAACAUCUUCGGAUGCAGAGGAGGCAGGCUUCGGUGGAGCGAUAGCGCCAACGUCCUCAACCUCCAAUGCAUCCCACCACAUGAUGAUGCCUGAAGAGCCUUGGUGUUUUG [C62A U130G] | -1.46
GACCAAUCUGCCCUCAGAGCUCGAGAACAUCUUCGGAUGCAGAGGAGGCAGGCUUCGGUGGAGCGAUAGCGCCAACGUCCUCAACCUCCAAUGCAUCCCACCACAUGAUGAUGCCUGAAGAGCCUUGGUGUUAUG [C62A U130G U133A] | -1.17
GACCAAUCUGCCCUCAGAGCUCGAGAACAUCUUCGGAUGCAGAGGAGGCAGGCUUCGGUGGGGCGAUAGCGCCACCGUCCUCAACCUCCAAUGCAUCCCACCACAUGAUGAUGCCUGUAGAGACUUGGUUUUUUU [C62G A75C A118U C123A G135U] | -2.3
GACCAAUCUGCCCUCAGAGCUCGAGAACAUCUUCGGAUGCAGAGGAGGCAGGCUUCGGUGGGGCGAUAGCGCCAACGUCCUCAACCUCCUAUGCAUCCCACCACAUGAUGAUGCCUGAAGAGCCUUGGUUUUUUG [C62G A90U] | -3.82
GACCAAUCUGCCCUCAGAGCUCGAGAACAUCUUCGGAUGCAGAGGAGGCAGGCUUCGGUGGGGCGAUAGCGCCAACGUCCUCAACCUCCUAUGCAUCCCACCACAUGAUGAAGCGUGAAGAGCUUUGGUUUUCUG [C62G A90U U112A C115G C124U U133C] | -5.24
GACCAAUCUGCCCUCAGAGCUCGAGAACAUCUUCGGAUGCAGAGGAGGCAGGCUUCGGUGGGGCGAUAGCGCCAACGUCCUCAACCUCCAAUGCGUCCCACCACAUGAUGAUGCCUGAAGAGCCUUGGUUUCUUG [C62G A95G U132C] | -1.55
GACCAAUCUGCCCUCAGAGCUCGAGAACAUCUUCGGAUGCAGAGGAGGCAGGCUUCGGUGGGGCGAUAGCGCCAACGUCCUCAACCUCCAAUGCAUCCCCCCACAUGAUGAUGCCUGAAGAGCCUUGGUUUUUUG [C62G A100C] | -3.47
GACCAAUCUGCCCUCAGAGCUCGAGAACAUCUUCGGAUGCAGAGGAGGCAGGCUUCGGUGGGGCGAUAGCGUCAACGUCCUCAACCUCCAAUGCAUCCCACCACAUGAUGAUGCCUGAAGAGCCUUGGUUUUUUG [C62G C72U] | -2.53
GACCAAUCUGCCCUCAGAGCUCGAGAACAUCUUCGGAUGCAGAGGAGGCAGGCUUCGGUGGGGCGAUAGCGCCAACGUCUUCAACCUCCAAUGCAUCCCACCACAUGAUGAUGCCUGAAGAGCCUUGGUUUUUUG [C62G C80U] | -2.03
GACCAAUCUGCCCUCAGAGCUCGAGAACAUCUUCGGAUGCAGAGGAGGCAGGCUUCGGUGGGGCGAUAGCGCCAACGUCCUCAACAUCCAAUGCAUCCCACCACAUGAUGAUGCCUGAAGAGCCUUGGUUUUUUG [C62G C86A] | -3.17
GACCAAUCUGCCCUCAGAGCUCGAGAACAUCUUCGGAUGCAGAGGAGGCAGGCUUCGGUGGGGCGAUAGCGCCAACGUCCUCAACCUCUAAUGCAUCCCACCACAUGAUGCUGCCUGAAGAGCCUCGGCUUUUUG [C62G C89U A111C U126C U129C] | -4.44

Variant | polymerase ribozyme fitness (log ratio)
GACCAAUCUGCCCUCAGAGCUCGAGAACAUCUUCGGAUGCAGAGGAGGCAGGCUUCGGUGGGGCGAUAGCGCCAACGUCCUCAACCUCCAAUGCAUCCCACCACAUGAUGAUGUCUGAAGAGCCUUGGUUUUUUG [C62G C114U] | -4.41
GACCAAUCUGCCCUCAGAGCUCGAGAACAUCUUCGGAUGCAGAGGAGGCAGGCUUCGGUGGGGCGAUAGCGCCAACGUCCUCAACCUCCAAUGCAUCCCACCACAUGAUGAUGCGUGAAGAGCCAUGGUUUUUUG [C62G C115G U125A] | -3.31
GACCAAUCUGCCCUCAGAGCUCGAGAACAUCUUCGGAUGCAGAGGAGGCAGGCUUCGGUGGGGCGAUAGCGCCAACGUCCUCAACCUCCAAUGCAUCCCACCACAUGAUGAUGCUUGAAGAUCCUUGGUUUUUUG [C62G C115U G122U] | -5.8
GACCAAUCUGCCCUCAGAGCUCGAGAACAUCUUCGGAUGCAGAGGAGGCAGGCUUCGGUGGGGCGAUAGCGCCAACGUCCUCAACCUCCAAUGCAUCCCACCACAUGAUGAUGCCUGAAGAGACUUGGUUUUUUG [C62G C123A] | -1.01
GACCAAUCUGCCCUCAGAGCUCGAGAACAUCUUCGGAUGCAGAGGAGGCAGGCUUCGGUGGGGCGAUAGCGCCAACGUCCUCAACCUCCAAUGCAUCCCACCACAUGAUAAUGCCUGAAGAGCCUGGGUUUUUUG [C62G G110A U126G] | -5.29
GACCAAUCUGCCCUCAGAGCUCGAGAACAUCUUCGGAUGCAGAGGAGGCAGGCUUCGGUGGGGCGAUAGCGCCAACGUCCUCAACCUCCAAUGCAUCCCACCACAUGAUCAUGCCUGAAGAGCCUUGGUUUUUUG [C62G G110C] | -6.06
GACCAAUCUGCCCUCAGAGCUCGAGAACAUCUUCGGAUGCAGAGGAGGCAGGCUUCGGUGGGGCGAUAGCGCCAACGUCCUCAACCUCCAAUGCAUCCCACCACAUGAUGAUCCCUGAAGAGCCUUGGUUUUUUG [C62G G113C] | -4.48
GACCAAUCUGCCCUCAGAGCUCGAGAACAUCUUCGGAUGCAGAGGAGGCAGGCUUCGGUGGGGCGAUAGCGCCAACGUCCUCAACCUCCAAUGCAUCCCACCACAUGAUGAUGCCUCAAGAGCCUUGGUUUUUUG [C62G G117C] | -5.09
GACCAAUCUGCCCUCAGAGCUCGAGAACAUCUUCGGAUGCAGAGGAGGCAGGCUUCGGUGGGGCGAUAGCGCCAACGUCCUCAACCUCCAAUGCAUCCCACCACAUGAUGAUGCCUUAAGAGCCUUGGUUUUUUG [C62G G117U] | -3.34
GACCAAUCUGCCCUCAGAGCUCGAGAACAUCUUCGGAUGCAGAGGAGGCAGGCUUCGGUGGGGCGAUAGCGCCAACGACCUCAACCUCCAAUGCAUCCCACCACAAGAUGAUGCCUGAAGAGCCUUGGUUUUUUG [C62G U78A U106A] | -1.75
GACCAAUCUGCCCUCAGAGCUCGAGAACAUCUUCGGAUGCAGAGGAGGCAGGCUUCGGUGGGGCGAUAGCGCCAACGGCCUCAACCUGCAAUGCAUCCCACCACAUGAUGAUGCCUGAAGAGCCUUGGUUUUUUG [C62G U78G C88G] | -3.52
GACCAAUCUGCCCUCAGAGCUCGAGAACAUCUUCGGAUGCAGAGGAGGCAGGCUUCGGUGGGGCGAUAGCGCCAACGUCCUCAACCUCCAAAGCAUCCCACCACAUGAUGAUGCCUGAAGAGCCUUGGUUUUUUG [C62G U92A] | -5.63
GACCAAUCUGCCCUCAGAGCUCGAGAACAUCUUCGGAUGCAGAGGAGGCAGGCUUCGGUGGGGCGAUAGCGCCAACGUCCUCAACCUCCAAUGCAUCCCACCACAAGAUGAUGCCUGAAGAGCCUUGGUUUUUUG [C62G U106A] | -1.16
GACCAAUCUGCCCUCAGAGCUCGAGAACAUCUUCGGAUGCAGAGGAGGCAGGCUUCGGUGGGGCGAUAGCGCCAACGUCCUCAACCUCCAAUGCAUCCCACCACAAGGUGAUGCAUGAAGAGACUUGGUUUUUUG [C62G U106A A108G C115A C123A] | -5.43
GACCAAUCUGCCCUCAGAGCUCGAGAACAUCUUCGGAUGCAGAGGAGGCAGGCUUCGGUGGGGCGAUAGCGCCAACGUCCUCAACCUCCAAUGCAUCCCACCACAUGAUGAAGCCUGAAGAGCCUUGGUUUUUUG [C62G U112A] | -0.878
GACCAAUCUGCCCUCAGAGCUCGAGAACAUCUUCGGAUGCAGAGGAGGCAGGCUUCGGUGGGGCGAUAGCGCCAACGUCCUCAACCUCCAAUGCAUCCCACCACAUGAUGAUGCCUGAAGAGCCUUGGUUUAUUG [C62G U132A] | -0.911
GACCAAUCUGCCCUCAGAGCUCGAGAACAUCUUCGGAUGCAGAGGAGGCAGGCUUCGGUGGGGCGAUAGCGCCAACGUCCUCAACCUCCAAUGCAUCCCACCACAUGAUGAUGCCUGAAGAGCCUUGGUUUUAUG [C62G U133A] | -1.22
GACCAAUCUGCCCUCAGAGCUCGAGAACAUCUUCGGAUGCAGAGGAGGCAGGCUUCGGUGGUGCGGUAGCGCCAACGUCCUCAACCUCCAAUGCAUCCCUCCACAUGAUGAUGCCUGAAGAGCCUUGGUUUUUUG [C62U A66G A100U] | -2.66
GACCAAUCUGCCCUCAGAGCUCGAGAACAUCUUCGGAUGCAGAGGAGGCAGGCUUCGGUGGUGCGUUAGCGCGAACGUCCUCAACCUCCAAUGCAUCCCACCAUAUGAUGACGCCUGAAGAGCCUUGGUUUUUUG [C62U A66U C73G C104U U112C] | -1.37
GACCAAUCUGCCCUCAGAGCUCGAGAACAUCUUCGGAUGCAGAGGAGGCAGGCUUCGGUGGUGCGAUAGCGCCAACGUCCUCCACCUUCAAUGCAUCCCACCACAUGAUGAUGCCUGAAAAGCCUUGGUUUUUUG [C62U A83C C88U G120A] | 0.0358
GACCAAUCUGCCCUCAGAGCUCGAGAACAUCUUCGGAUGCAGAGGAGGCAGGCUUCGGUGGUGCGAUAGCGCCAACGUCCUCAGCCUCCAAUGCAUCCCAACACAUGAUGAUGCCUGAAGAGUCUUGGUUUUUUG [C62U A84G C101A C123U] | -1.03
